Measured values taken from patent publication US20140323392A1 (UNIVERSITY OF UTAH RESEARCH FOUNDATION, published 2014).
Bridges are numbered along the chain shown (N, C = ends). [ ]: non-standard residue; d: D form.

B1: N0N(PIE7)2 (peptide)
peptide: Ac-[dK]G[dA][dC][dD][dY][dP][dE][dW][dQ][dW][dL][dC][dA][dA]-NH2
modifications: disulfide 4-13 (inferred); also: dimer, N- to N-terminal link by zero length spacer
B2: PEG5-(PIE13)2 (peptide)
peptide: Ac-[dH][dP][dC][dD][dY][dP][dE][dW][dQ][dW][dL][dC]K[dL]G[dK]-NH2
modifications: disulfide 3-12 (inferred); not fully specified (residue 13); also: dimer crosslinked by PEG5 via internal Lys

Each binder was assayed against HIV-1 JRFL envelope glycoprotein gp41 (N-trimer of the prehairpin intermediate) (HIV-1 strain JRFL) (assay: cell-based or functional assay).

Row | Binder | IC50, JRFL pseudovirion entry [µM]
1 | Ac-[dK]G[dA][dC][dD][dY][dP][dE][dW][dQ][dW][dL][dC][dA][dA]-NH2 (disulfide 4-13 (inferred); also: dimer linked N- to C-terminal by PEG9 spacer) [N9C(PIE7)2] | 0.31
2 | Ac-G[dA][dC][dD][dY][dP][dE][dW][dQ][dW][dL][dC][dA][dA]G[dK]-NH2 (disulfide 3-12 (inferred)) [PIE7-GK] | 15.8
3 | Ac-G[dA][dC][dD][dY][dP][dE][dW][dQ][dW][dL][dC][dA][dA]G[dK]-NH2 (disulfide 3-12 (inferred); also: dimer, C- to C-terminal link by PEG9 spacer) [C9C(PIE7-GK)2] | 0.22
4 | Ac-G[dA][dC][dD][dY][dP][dE][dW][dQ][dW][dL][dC][dA][dA]G[dK]-NH2 (disulfide 3-12 (inferred); also: PEG4 attached at the C-terminus) [PIE7-GK-PEG4] | 13.1
5 | Ac-[dH][dP][dC][dD][dY][dP][dE][dW][dQ][dW][dL][dC][dK][dL]G[dK]-NH2 (disulfide 3-12 (inferred)) [PIE13] | 1.47
6 | B1 | 1.09
7 | Ac-[dK]G[dA][dC][dD][dY][dP][dE][dW][dQ][dW][dL][dC][dA][dA]-NH2 (disulfide 4-13 (inferred); also: dimer, N- to N-terminal link by PEG5 spacer) [N5N(PIE7)2] | 1.41
8 | Ac-G[dA][dC][dD][dY][dP][dE][dW][dQ][dW][dL][dC][dA][dA]G[dK]-NH2 (disulfide 3-12 (inferred); also: dimer, C- to C-terminal link by PEG5 spacer) [C5C(PIE7-GK)2] | 0.2
9 | Ac-[dK]G[dA][dC][dD][dY][dP][dE][dW][dQ][dW][dL][dC][dA][dA]-NH2 (disulfide 4-13 (inferred)) [PIE7] | 24
10 | Ac-[dH][dP][dC][dD][dY][dP][dE][dW][dQ][dW][dL][dC][dE][dL]G[dK]-NH2 (disulfide 3-12 (inferred); also: dimer, C- to C-terminal link by PEG5 spacer) [C5C(PIE12)2] | 0.014
11 | Ac-G[dA][dC][dD][dY][dP][dE][dW][dQ][dW][dL][dC][dA][dA]G[dK][dK]-NH2 (disulfide 3-12 (inferred)) [PIE7-GKK] | 19.1
12 | Ac-[dH][dP][dC][dD][dY][dP][dE][dW][dQ][dW][dL][dC][dR][dL]G[dK]-NH2 (disulfide 3-12 (inferred)) [PIE14] | 1.05
13 | Ac-[dK][dK]G[dA][dC][dE][dS][dP][dE][dW][dR][dW][dL][dC][dA][dA]-NH2 (disulfide 5-14 (inferred)) [2K-PIE1] | > 100
14 | Ac-[dK]G[dA][dC][dD][dY][dP][dE][dW][dQ][dW][dL][dC][dA][dA]G[dK]-NH2 (disulfide 4-13 (inferred)) [K-PIE7-GK] | 14.8
15 | Ac-[dK]G[dA][dC][dD][dY][dK][dE][dW][dQ][dW][dL][dC][dA][dA]-NH2 (disulfide 4-13 (inferred)) [PIE8] | ~110
16 | Ac-[dK][dK]G[dA][dC][dE][dL][dL]G[dW][dE][dW][dA][dW][dL][dC][dA][dA]-NH2 (disulfide 5-16 (inferred)) [D10-p5] | > 25
17 | Ac-[dH][dA][dC][dD][dY][dP][dE][dW][dQ][dW][dL][dC][dE][dL]G[dK]-NH2 (disulfide 3-12 (inferred)) [PIE15] | 1.45
18 | Ac-[dK]G[dA][dC][dD][dY][dP][dE][dW][dQ][dW][dL][dC][dA][dA]-NH2 (disulfide 4-13 (inferred); also: dimer linked N- to C-terminal by PEG5 spacer) [N5C(PIE7)2] | 0.3
19 | B2 | 0.015
20 | Ac-[dK]G[dA][dC][dD][dY][dP][dE][dW][dR][dW][dL][dC][dA][dA]-NH2 (disulfide 4-13 (inferred)) [PIE2] | 66

The binders below were run against HIV-1 HXB2 envelope glycoprotein gp41 (N-trimer of the prehairpin intermediate) (HIV-1 strain HXB2, UniProt P04578 512-856) (assay: cell-based or functional assay).

Row | Binder | IC50, HXB2 pseudovirion entry [µM]
21 | Ac-[dK]G[dA][dC][dD][dY][dP][dE][dW][dQ][dW][dL][dC][dA][dA]-NH2 (disulfide 4-13 (inferred); also: dimer linked N- to C-terminal by PEG9 spacer) [N9C(PIE7)2] | 0.00033
22 | Ac-G[dA][dC][dD][dY][dP][dE][dW][dQ][dW][dL][dC][dA][dA]G[dK]-NH2 (disulfide 3-12 (inferred)) [PIE7-GK] | 0.39
23 | Ac-[dK][dK]G[dA][dC][dD][dY][dP][dE][dW][dR][dW][dL][dC][dA][dA]-NH2 (disulfide 5-14 (inferred)) [2K-PIE2] | 0.0026
24 | Ac-G[dA][dC][dD][dY][dP][dE][dW][dQ][dW][dL][dC][dA][dA]G[dK]-NH2 (disulfide 3-12 (inferred); also: dimer, C- to C-terminal link by PEG9 spacer) [C9C(PIE7-GK)2] | 0.00035
25 | Ac-G[dA][dC][dD][dY][dP][dE][dW][dQ][dW][dL][dC][dA][dA]G[dK]-NH2 (disulfide 3-12 (inferred); also: PEG4 attached at the C-terminus) [PIE7-GK-PEG4] | 0.35
26 | Ac-[dH][dP][dC][dD][dY][dP][dE][dW][dQ][dW][dL][dC][dK][dL]G[dK]-NH2 (disulfide 3-12 (inferred)) [PIE13] | 0.041
27 | B1 | 0.0008
28 | Ac-[dK]G[dA][dC][dD][dY][dP][dE][dW][dQ][dW][dL][dC][dA][dA]-NH2 (disulfide 4-13 (inferred); also: dimer, N- to N-terminal link by PEG5 spacer) [N5N(PIE7)2] | 0.0011
29 | Ac-[dK]G[dA][dC][dD][dY][dP][dE][dW][dR][dW][dL][dC][dA][dA][dA]-NH2 (disulfide 4-13 (inferred)) [PIE2-AAA] | 0.0014
30 | Ac-G[dA][dC][dD][dY][dP][dE][dW][dQ][dW][dL][dC][dA][dA]G[dK]-NH2 (disulfide 3-12 (inferred); also: dimer, C- to C-terminal link by PEG5 spacer) [C5C(PIE7-GK)2] | 0.00036
31 | Ac-[dK]G[dA][dC][dD][dY][dP][dE][dW][dQ][dW][dL][dC][dA][dA]-NH2 (disulfide 4-13 (inferred)) [PIE7] | 0.62
32 | Ac-G[dA][dC][dD][dY][dP][dE][dW][dQ][dW][dL][dC][dA][dA]G[dK][dK]-NH2 (disulfide 3-12 (inferred)) [PIE7-GKK] | 0.38
33 | Ac-[dH][dP][dC][dD][dY][dP][dE][dW][dQ][dW][dL][dC][dR][dL]G[dK]-NH2 (disulfide 3-12 (inferred)) [PIE14] | 0.033
34 | Ac-[dK][dK]G[dA][dC][dE][dS][dP][dE][dW][dR][dW][dL][dC][dA][dA]-NH2 (disulfide 5-14 (inferred)) [2K-PIE1] | 0.0022
35 | Ac-[dK]G[dA][dC][dD][dY][dK][dE][dW][dQ][dW][dL][dC][dA][dA]-NH2 (disulfide 4-13 (inferred)) [PIE8] | 0.0017
36 | Ac-[dK][dK]G[dA][dC][dE][dL][dL]G[dW][dE][dW][dA][dW][dL][dC][dA][dA]-NH2 (disulfide 5-16 (inferred)) [D10-p5] | 0.0095
37 | Ac-[dH][dA][dC][dD][dY][dP][dE][dW][dQ][dW][dL][dC][dE][dL]G[dK]-NH2 (disulfide 3-12 (inferred)) [PIE15] | 0.067
38 | Ac-[dK]G[dA][dC][dD][dY][dP][dE][dW][dQ][dW][dL][dC][dA][dA]-NH2 (disulfide 4-13 (inferred); also: dimer linked N- to C-terminal by PEG5 spacer) [N5C(PIE7)2] | 0.00058
